Data on 1 protein can be found in patent US7279304B2, “Methods for preparation of macrocyclic molecules and macrocyclic molecules prepared thereby” (President and Fellows of Harvard College, priority 2000, dated 2007).

Holding throughout (assay): purified protein, by the assay type
Holding throughout (type): biochemical
Common to all, as to conditions: other: Table 1; macrocyclization of peptide-SNAC substrate; 25 mM MOPS, pH 7.0

Substrate in series [1]: CC(=O)NCCSC(=O)[C@H](CC(C)C)NC(=O)[C@H](CCCN)NC(=O)[C@@H](NC(=O)[C@H](Cc1ccc(O)cc1)NC(=O)[C@H](C)NC(=O)[C@H](CC(N)=O)NC(=O)[C@@H](Cc1ccccc1)NC(=O)[C@H](Cc1ccccc1)NC(=O)[C@@H]1CCCN1C(=O)[C@H](N)Cc1ccccc1)C(C)C
The method, then:
(§1) Macrocyclization reactions were carried out in 25 mM MOPS, pH 7.0 in a total volume of 400 μL. Reactions were initiated by addition of TycC TE and quenched at various time points by the addition of 25 μL 1.7% TFA/water, flash frozen in liquid nitrogen and stored at −80° C. (for Ex. 13, reactions were quenched by the addition of sodium phosphate, pH 5.3, to 100 mM). The reactions were then thawed, 85 μL acetonitrile added, and analyzed by analytical HPLC with monitoring at 220 nm (20% to 80% acetonitrile in 0.1% TFA/water, or in 25 mM potassium phosphate, pH 5.3 for Ex. 13, over 35 minutes, Vydac protein and peptide C18 column). Initial rates were calculated using 1 minute time points. Peptide-SNAC and reaction product concentrations were determined for all Tyr-containing peptides based on the estimated extinction coefficient ε (280 nm)=1,280 M^−1 cm^−1, which agrees with the experimentally determined ε (280 nm) of Ex. 1. For peptide-SNACs not containing Tyr, ε (220 nm) was determined experimentally, and concentrations of corresponding cyclic products determined by assuming equal ε (220 nm) values for the peptide-SNAC and cyclic product.

Substrate in series [2]: CC(=O)NCCSC(=O)[C@H](C)NC(=O)[C@H](CCCN)NC(=O)[C@@H](NC(=O)[C@H](Cc1ccc(O)cc1)NC(=O)[C@H](CCC(N)=O)NC(=O)[C@H](CC(N)=O)NC(=O)[C@@H](Cc1ccccc1)NC(=O)[C@H](Cc1ccccc1)NC(=O)[C@@H]1CCCN1C(=O)[C@H](N)Cc1ccccc1)C(C)C
As for the experimental part: as §1

Substrate in series [3]: CC(=O)NCCSC(=O)[C@H](CC(C)C)NC(=O)[C@H](CCCN)NC(=O)[C@@H](NC(=O)[C@H](C)NC(=O)[C@H](CCC(N)=O)NC(=O)[C@H](CC(N)=O)NC(=O)[C@@H](Cc1ccccc1)NC(=O)[C@H](Cc1ccccc1)NC(=O)[C@@H]1CCCN1C(=O)[C@H](N)Cc1ccccc1)C(C)C
The method, then:
as §1

Substrate in series [4]: CC(=O)NCCSC(=O)[C@H](CC(C)C)NC(=O)[C@H](CCCN)NC(=O)[C@H](C)NC(=O)[C@H](Cc1ccc(O)cc1)NC(=O)[C@H](CCC(N)=O)NC(=O)[C@H](CC(N)=O)NC(=O)[C@@H](Cc1ccccc1)NC(=O)[C@H](Cc1ccccc1)NC(=O)[C@@H]1CCCN1C(=O)[C@H](N)Cc1ccccc1
As for the experimental part: as §1

Substrate in series [5]: CC(=O)NCCSC(=O)[C@H](CC(C)C)NC(=O)[C@H](CCCN)NC(=O)[C@@H](NC(=O)[C@H](Cc1ccc(O)cc1)NC(=O)[C@H](CCC(N)=O)NC(=O)[C@H](CC(N)=O)NC(=O)[C@H](Cc1ccccc1)NC(=O)[C@@H]1CCCN1C(=O)[C@H](N)Cc1ccccc1)C(C)C
As for the experimental part: as §1

B1: TycC TE (excised TE domain protein from the tyrocidine NRPS) (Brevibacillus parabrevis) (protein)
chain: FESRYGTAILLNQETARNVFCFTPIGAQSVYYQKLAAEIQGVSLYSFDFIQDDNRMEQYIAAITAIDPSGPYTLMGYSSGGNLAFEVAKELEERGYGVTDIILFDSYWKDKAIERTVAETENDIAQLFAEIGENTEMFNMTQEDFQLYAANEFVKQSFVRKTVSYVMFHNNLVNTGMTTAAIHLIQSELEADEEAPVAAKWNESAWANATQRLLTYSGHGIHSRMLAGDYASQNASILQNILQELFILK
notes: excised TE domain protein from the tyrocidine NRPS (TycC TE); made in house
A word on the Km: it is the concentration of substrate that gives half-maximal velocity. Regarding B1, the Km in series [1] was 4 µM; in series [2], 6 µM; in series [3] it was 15 µM; in series [4] it was 9 µM; in series [5] it was 6 µM.
